Patent US20050032185

B1: PDK1 (form and source not specified in the sentence) (enzyme, UniProt O15530 1-556, looked up, species assumed)
3-phosphoinositide-dependent protein kinase 1: MARTTSQLYDAVPIQSSVVLCSCPSPSMVRTQTESSTPPGIPGGSRQGPAMDGTAAEPRPGAGSLQHAQPPPQPRKKRPEDFKFGKILGEGSFSTVVLARELATSREYAIKILEKRHIIKENKVPYVTRERDVMSRLDHPFFVKLYFTFQDDEKLYFGLSYAKNGELLKYIRKIGSFDETCTRFYTAEIVSALEYLHGKGIIHRDLKPENILLNEDMHIQITDFGTAKVLSPESKQARANSFVGTAQYVSPELLTEKSACKSSDLWALGCIIYQLVAGLPPFRAGNEYLIFQKIIKLEYDFPEKFFPKARDLVEKLLVLDATKRLGCEEMEGYGPLKAHPFFESVTWENLHQQTPPKLTAYLPAMSEDDEDCYGNYDNLLSQFGCMQVSSSSSSHSLSASDTGLPQRSGSNIEQYIHDLDSNSFELDLQFSEDEKRLLLEKQAGGNPWHQFVENNLILKMGPVDKRKGLFARRRQLLLTEGPHLYYVDPVNKVLKGEIPWSQELRPEAKNFKTFFVHTPNRTYYLMDPSGNAHKWCRKIQEVWRQRYQSHPDAAVQ
B2: GST-DSTPK61 (residues 1-752 of Drosophila Serine/Threonine Protein Kinase-61, expressed in E. coli) (protein)
chain: MKCKSWSNKINNYVVRKIKSIKINGTQQQLQLPGSGASGIAAAAVITVASDCGENCSSNGTEHQQHFNIATTTATSATEATMPAMAKEKASATVSLGESNFRDINLKDLAVVVEAASRLHHQQNVCGCGAVSSTENNNNSRYGSSKYLTNGHTSPLAAAVASNSSSVATTPHCRMLHNCSLQQYQNDIRQQTEILDMLRQQHQQGYQSQQQQQQPQQQQEQQQQQEQSQQQQQLQNPAPRRSPNDFIFGRYIGEGSYSIVYLAVDIHSRREYAIKVCEKRLILRERKQDYIKREREVMHQMTNVPGFVNLSCTFQDQRSLYFVMTYARKGDMLPYINRVGSFDVACTRHYAAELLLACEHMHRRNVVHRDLKPENILLDEDMHTLIADFGSAKVMTAHERALATEHCSEQRRSNSDEDDEDSDRLENEDEDFYDRDSEELDDGDDEQQQEEMDSPRHRQRRYNRHRKASFVGTAQYVSPEVLQNGPITPAADLWALGCIVYQMIAGLPPFRGSNDYVIFKEILDCAVDFPQGFDKDAEDLVRKLLRVDPRDRLGAQDEFGYYESIRAHPFFAGIDWQTLRQQTPPPIYPYLPGVSQDEDFRSSYTVPGDLEPGLDERQISRLLSAELGVGSSVAMPVKRSTAKNSFDLNDAEKLQRLEQQKTDKWHVFADGEVILKKGFVNKRKGLFARKRMLLLTTGPRLIYIDPVQMIKKGEIPWSPDLRAEYKNFKIFFVHTPNRTYYLDDPEGYAIHW

Tests used:
[1] = target: GST-PKBα (full length human protein kinase Bα with N-terminal glutathione S-transferase, from unstimulated 293 cells) [GST: P08515]
GST-PKBα (full length human protein kinase Bα with N-terminal glutathione S-transferase, from unstimulated 293 cells) [GST: P08515], sequence (P08515 whole entry, looked up): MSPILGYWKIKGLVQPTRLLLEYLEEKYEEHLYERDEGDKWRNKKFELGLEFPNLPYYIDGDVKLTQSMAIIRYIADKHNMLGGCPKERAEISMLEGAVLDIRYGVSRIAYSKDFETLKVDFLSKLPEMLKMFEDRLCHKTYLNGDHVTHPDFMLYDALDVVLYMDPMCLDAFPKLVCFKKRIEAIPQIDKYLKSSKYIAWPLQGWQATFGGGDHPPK

protein kinase Bγ, sequence (Q9Y243 2-479): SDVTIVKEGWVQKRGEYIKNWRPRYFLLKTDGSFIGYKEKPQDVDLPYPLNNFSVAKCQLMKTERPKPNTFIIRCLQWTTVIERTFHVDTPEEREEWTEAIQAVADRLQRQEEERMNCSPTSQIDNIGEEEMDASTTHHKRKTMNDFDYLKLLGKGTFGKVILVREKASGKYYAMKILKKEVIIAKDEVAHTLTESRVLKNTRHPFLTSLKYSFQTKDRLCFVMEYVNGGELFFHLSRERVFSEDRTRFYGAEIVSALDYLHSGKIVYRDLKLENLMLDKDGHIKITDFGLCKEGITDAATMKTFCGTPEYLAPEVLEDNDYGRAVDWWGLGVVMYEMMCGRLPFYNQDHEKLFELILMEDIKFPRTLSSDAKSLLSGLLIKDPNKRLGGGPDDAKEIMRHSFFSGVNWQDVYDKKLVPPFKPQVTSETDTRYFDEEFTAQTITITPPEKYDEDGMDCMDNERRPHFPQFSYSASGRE

Protein	phosphorylation (p70 S6 kinase)	phosphorylation and activation (protein kinase Bβ)	phosphorylation and activation (protein kinase Bγ)	increase in GST-PKBα activity at maximal phosphorylation [1]	maximal phosphorylation of GST-PKBα (mol phosphate per mol protein) [1]	specific activity towards GST-PKBα in the presence of PtdIns(3,4,5)P3 [1]
B1	PDK1 has been shown by us to phosphorylate p70 S6 kinase in the absence of InsPtd(3,4,5)P3	PDK1 phosphorylates and activates not only PKBα but also PKBβ and PKBγ	PDK1 phosphorylates and activates not only PKBα but also PKBβ and PKBγ	–	–	–
B2	–	–	–	paralleled by a 35 fold increase in activity	the phosphorylation of GST-PKBα reached 0.75 mol phosphate per mol protein	bacterially expressed GST-DST PK61 (280 U/mg)
